Assay results published in US20240301064A1.

Target: PD-1 on PD-1 reporter Jurkat cells
Experiment: cell-based or functional assay

- SHP-2 recruitment, Ig-tethered test article, PD-1 reporter Jurkat cells; EC50: 2.94 nM
- SHP-2 recruitment, Ig-tethered test article, PD-1 reporter Jurkat cells; EC50 (second experiment): 2.59 nM
Substance: CC-90006 (antibody)
